The source of these data is article PMC4460866, “A folded and immunogenic IgE-hyporeactive variant of the major allergen Phl p 1 produced in Escherichia coli” (BMC Biotechnology, 2015).

This series concerns the molecule itself. The experiment in a line: SEC; gel filtration of the purified tag-free proteins; elution volumes corresponding to approximately 20 kDa; data not shown. On the technique in general: SEC sorts molecules by how far they enter the pores of the column.

B1: C-terminal domain of Phl p 1.0102 (wild-type), GST tag removed (domain or fragment)
chain: KVTFHVEKGSNPNYLALLVKYVNGDGDVVAVDIKEKGKDKWIELKESWGAIWRIDTPDKLTGPFTVRYTTEGGTKTEAEDVIPEGWKADTSYESK
Regarding B1, the “stoichiometry N” value worked out at 2.

B2: IgE-hyporeactive (K8A, N11A, D55A) mutant of the C-terminal domain of Phl p 1.0102, GST tag removed (domain or fragment)
chain: KVTFHVEAGSAPNYLALLVKYVNGDGDVVAVDIKEKGKDKWIELKESWGAIWRIATPDKLTGPFTVRYTTEGGTKTEAEDVIPEGWKADTSYESK
As to B2, the “stoichiometry N” value stood at 2.

What is called stoichiometry N is a count of units in the complex or per binding partner.
